This is an account of results in patent US11180770B2, “HPPD variants and methods of use” (BASF Agricultural Solutions Seed US LLC, priority 2017, dated 2021).

The data set has as its system HPPD polypeptides. The data set is described as follows: coupled HPPD activity assay: turnover and residual turnover in crude extracts. To be noted: for Residual turnover [%]: 100 μM Cmpd. 1, signal change with inhibitor divided by signal change without inhibitor; for Turnover: absence of Cmpd. 1, kinetic changes in absorbance (OD) at 320 nm, 30 min; for Turnover / Residual turnover: high substrate concentration; for Residual turnover: presence of 100 μM Cmpd. 1, changes in absorbance (OD) at 320 nm. The format is biochemical, Pseudomonas fluorescens.

B1: 11 (protein)
chain: MADLYENPMGLMGFEFIEFASPTPGTLEPIFEIMGFTKVATHRSKNVHLYRQGEINLILNNEPNSIASYFAAEHGPSVCGMAFRVKDSQKAYNRALELGAQPIHIDTGPMELNLPAIKGIGGAPLYLIDRFGEGSSIYDIDFVYLEGVERNPVGAGLKVIDHLTHNVYRGRMVYWANFYEKLFNFREARYFDIKGEYTGLTSKAMSAPDGMIRIPLNEESSKGAGQIEEFLMQFNGEGIQHVAFLTDDLVKTWDALKKIGMRFMTAPPDTYYEMLEGRLPDHGEPVDQLQARGILLDGSSVEGDKRLLLQIFSETLMGPVFFEFIQRKGDDGFGPDSFKVLFESVERDQVRRGVLTAD
modifications: mutant HPPD polypeptide
Regarding B1, the “Residual turnover [%]” value is 44%, the Turnover came out at 0.160 and the Residual turnover is 0.071.

B2: 15 (protein)
chain: MADLYENPMGLMGFEFIEFASPTPGTLEPIFEIMGFTKVATHRSKNVHLYRQGEINLILNNEPNSIASYFAAEHGPSVCGMAFRVKDSQKAYNRALELGAQPIHIDTGPMELNLPAIKGIGGAPLYLIDRFGEGSSIYDIDFVYLEGVERNPVGAGLKVIDHLTHNVYRGRMVYWANFYEKLFNFREARYFDIKGEYTGLTSKAMSAPDGMIRIPLNEESSKGAGQIEEFLMQFNGEGIQHVAFLTDDLVKTWDALKKIGMRFMTAPRDNYYEMLEGRLPDHGEPVDQLQARGILLDGSSVEGDKRLLLQIFSETLMGPVFFEFIQRKGDDGFGPDSFKVLFESVERDQVRRGVLTAD
modifications: mutant HPPD polypeptide
On to B2, for which the Turnover amounted to 0.040 and the Residual turnover is given as 0.030.

B3: 20 (protein)
chain: MADLYENPMGLMGFEFIEFASPTPGTLEPIFEIMGFTKVATHRSKNVHLYRQGEINLILNNEPNSIASYFAAEHGPSVCGMAFRVKDSQKAYNRALELGAQPIHIDTGPMELNLPAIKGIGGAPLYLIDRFGEGSSIYDIDFVYLEGVERNPVGAGLKVIDHLTHNVYRGRMVYWANFYEKLFNFREARYFDIKGEYTGLTSKAMSAPDGMIRIPLNEESSKGAGQIEEFLMQFNGEGIQHVAFLTDDLVKTWDALKKIGMRFMTAPSDEYYEMLEGRLPDHGEPVDQLQARGILLDGSSVEGDKRLLLQIFSETLMGPVFFEFIQRKGDDGFGPDSFKVLFESVERDQVRRGVLTAD
modifications: mutant HPPD polypeptide
Regarding B3, the “Residual turnover [%]” value is 53%, the Turnover came to 0.199 and the Residual turnover was 0.105.

B4: 12 (protein)
chain: MADLYENPMGLMGFEFIEFASPTPGTLEPIFEIMGFTKVATHRSKNVHLYRQGEINLILNNEPNSIASYFAAEHGPSVCGMAFRVKDSQKAYNRALELGAQPIHIDTGPMELNLPAIKGIGGAPLYLIDRFGEGSSIYDIDFVYLEGVERNPVGAGLKVIDHLTHNVYRGRMVYWANFYEKLFNFREARYFDIKGEYTGLTSKAMSAPDGMIRIPLNEESSKGAGQIEEFLMQFNGEGIQHVAFLTDDLVKTWDALKKIGMRFMTAPADNYYEMLEGRLPDHGEPVDQLQARGILLDGSSVEGDKRLLLQIFSETLMGPVFFEFIQRKGDDGFGPDSFKVLFESVERDQVRRGVLTAD
modifications: mutant HPPD polypeptide
Take B4: the “Residual turnover [%]” value is listed as 50%, the Turnover was 0.115 and the Residual turnover worked out at 0.058.

B5: 16 (protein)
chain: MADLYENPMGLMGFEFIEFASPTPGTLEPIFEIMGFTKVATHRSKNVHLYRQGEINLILNNEPNSIASYFAAEHGPSVCGMAFRVKDSQKAYNRALELGAQPIHIDTGPMELNLPAIKGIGGAPLYLIDRFGEGSSIYDIDFVYLEGVERNPVGAGLKVIDHLTHNVYRGRMVYWANFYEKLFNFREARYFDIKGEYTGLTSKAMSAPDGMIRIPLNEESSKGAGQIEEFLMQFNGEGIQHVAFLTDDLVKTWDALKKIGMRFMTAPSDNYYEMLEGRLPDHGEPVDQLQARGILLDGSSVEGDKRLLLQIFSETLMGPVFFEFIQRKGDDGFGPDSFKVLFESVERDQVRRGVLTAD
modifications: mutant HPPD polypeptide
B5: the “Residual turnover [%]” value is given as 46%, the Turnover is reported as 0.181 and the Residual turnover was 0.083.

B6: 18 (protein)
chain: MADLYENPMGLMGFEFIEFASPTPGTLEPIFEIMGFTKVATHRSKNVHLYRQGEINLILNNEPNSIASYFAAEHGPSVCGMAFRVKDSQKAYNRALELGAQPIHIDTGPMELNLPAIKGIGGAPLYLIDRFGEGSSIYDIDFVYLEGVERNPVGAGLKVIDHLTHNVYRGRMVYWANFYEKLFNFREARYFDIKGEYTGLTSKAMSAPDGMIRIPLNEESSKGAGQIEEFLMQFNGEGIQHVAFLTDDLVKTWDALKKIGMRFMTAPPDEYYEMLEGRLPDHGEPVDQLQARGILLDGSSVEGDKRLLLQIFSETLMGPVFFEFIQRKGDDGFGPDSFKVLFESVERDQVRRGVLTAD
modifications: mutant HPPD polypeptide
As for B6, the “Residual turnover [%]” value is reported as 43%, the Turnover was 0.134 and the Residual turnover is recorded as 0.057.

B7: 22 (protein)
chain: MADLYENPMGLMGFEFIEFASPTPGTLEPIFEIMGFTKVATHRSKNVHLYRQGEINLILNNEPNSIASYFAAEHGPSVCGMAFRVKDSQKAYNRALELGAQPIHIDTGPMELNLPAIKGIGGAPLYLIDRFGEGSSIYDIDFVYLEGVERNPVGAGLKVIDHLTHNVYRGRMVYWANFYEKLFNFREARYFDIKGEYTGLTSKAMSAPDGMIRIPLNEESSKGAGQIEEFLMQFNGEGIQHVAFLTDDLVKTWDALKKIGMRFMTAPGDTYYEMLEGRLPDHGEPVDQLQARGILLDGSSVEGDKRLLLQIFSETLMGPVFFEFIQRKGDDGFGPDSFKVLFEQVERDQVRRGVLTAD
modifications: mutant HPPD polypeptide
For the molecule B7, the “Residual turnover [%]” value came out at 47%, the Turnover is given as 0.132 and the Residual turnover is listed as 0.062.

B8: 17 (protein)
chain: MADLYENPMGLMGFEFIEFASPTPGTLEPIFEIMGFTKVATHRSKNVHLYRQGEINLILNNEPNSIASYFAAEHGPSVCGMAFRVKDSQKAYNRALELGAQPIHIDTGPMELNLPAIKGIGGAPLYLIDRFGEGSSIYDIDFVYLEGVERNPVGAGLKVIDHLTHNVYRGRMVYWANFYEKLFNFREARYFDIKGEYTGLTSKAMSAPDGMIRIPLNEESSKGAGQIEEFLMQFNGEGIQHVAFLTDDLVKTWDALKKIGMRFMTAPADEYYEMLEGRLPDHGEPVDQLQARGILLDGSSVEGDKRLLLQIFSETLMGPVFFEFIQRKGDDGFGPDSFKVLFESVERDQVRRGVLTAD
modifications: mutant HPPD polypeptide
For B8, the “Residual turnover [%]” value stood at 59%, the Turnover is given as 0.138 and the Residual turnover is listed as 0.081.

B9: 21 (protein)
chain: MADLYENPMGLMGFEFIEFASPTPGTLEPIFEIMGFTKVATHRSKNVHLYRQGEINLILNNEPNSIASYFAAEHGPSVCGMAFRVKDSQKAYNRALELGAQPIHIDTGPMELNLPAIKGIGGAPLYLIDRFGEGSSIYDIDFVYLEGVERNPVGAGLKVIDHLTHNVYRGRMVYWANFYEKLFNFREARYFDIKGEYTGLTSKAMSAPDGMIRIPLNEESSKGAGQIEEFLMQFNGEGIQHVAFLTDDLVKTWDALKKIGMRFMTAPADTYYEMLEGRLPDHGEPVDQLQARGILLDGSSVEGDKRLLLQIFSETLMGPVFFEFIQRKGDDGFGPDSFKVLFEQVERDQVRRGVLTAD
modifications: mutant HPPD polypeptide
As to B9, the “Residual turnover [%]” value stood at 51%, the Turnover is recorded as 0.157 and the Residual turnover came out at 0.080.

B10: 19 (protein)
chain: MADLYENPMGLMGFEFIEFASPTPGTLEPIFEIMGFTKVATHRSKNVHLYRQGEINLILNNEPNSIASYFAAEHGPSVCGMAFRVKDSQKAYNRALELGAQPIHIDTGPMELNLPAIKGIGGAPLYLIDRFGEGSSIYDIDFVYLEGVERNPVGAGLKVIDHLTHNVYRGRMVYWANFYEKLFNFREARYFDIKGEYTGLTSKAMSAPDGMIRIPLNEESSKGAGQIEEFLMQFNGEGIQHVAFLTDDLVKTWDALKKIGMRFMTAPRDEYYEMLEGRLPDHGEPVDQLQARGILLDGSSVEGDKRLLLQIFSETLMGPVFFEFIQRKGDDGFGPDSFKVLFESVERDQVRRGVLTAD
modifications: mutant HPPD polypeptide
Regarding B10, the “Residual turnover [%]” value was determined as 45%, the Turnover is recorded as 0.141 and the Residual turnover is on record as 0.063.

B11: 14 (protein)
chain: MADLYENPMGLMGFEFIEFASPTPGTLEPIFEIMGFTKVATHRSKNVHLYRQGEINLILNNEPNSIASYFAAEHGPSVCGMAFRVKDSQKAYNRALELGAQPIHIDTGPMELNLPAIKGIGGAPLYLIDRFGEGSSIYDIDFVYLEGVERNPVGAGLKVIDHLTHNVYRGRMVYWANFYEKLFNFREARYFDIKGEYTGLTSKAMSAPDGMIRIPLNEESSKGAGQIEEFLMQFNGEGIQHVAFLTDDLVKTWDALKKIGMRFMTAPPDNYYEMLEGRLPDHGEPVDQLQARGILLDGSSVEGDKRLLLQIFSETLMGPVFFEFIQRKGDDGFGPDSFKVLFESVERDQVRRGVLTAD
modifications: mutant HPPD polypeptide
With B11, the “Residual turnover [%]” value turned out to be 33%, the Turnover came to 0.188 and the Residual turnover came to 0.062.

B12: 13 (protein)
chain: MADLYENPMGLMGFEFIEFASPTPGTLEPIFEIMGFTKVATHRSKNVHLYRQGEINLILNNEPNSIASYFAAEHGPSVCGMAFRVKDSQKAYNRALELGAQPIHIDTGPMELNLPAIKGIGGAPLYLIDRFGEGSSIYDIDFVYLEGVERNPVGAGLKVIDHLTHNVYRGRMVYWANFYEKLFNFREARYFDIKGEYTGLTSKAMSAPDGMIRIPLNEESSKGAGQIEEFLMQFNGEGIQHVAFLTDDLVKTWDALKKIGMRFMTAPGDNYYEMLEGRLPDHGEPVDQLQARGILLDGSSVEGDKRLLLQIFSETLMGPVFFEFIQRKGDDGFGPDSFKVLFESVERDQVRRGVLTAD
modifications: mutant HPPD polypeptide
B12: the Turnover came to 0.024.
